Results: patent US9217013B2, “Treatment of amyloidoses using myelin basic protein and fragments thereof” (The Research Foundation for the State University of New York, priority 2008, dated 2015)

Columns and labels:
[1] = biological target: Dutch/Iowa Aβ40 (Aβ40DI) (Homo sapiens, UniProt P05067, D694N/E693Q); test: TEM and single-touch AFM of Aβ40DI fibril formation; format: biochemical
Method: FIG. 18 Inhibition of Aβ40DI fibril formation by MBP as assessed by TEM and single-touch AFM analyses. Aβ40DI peptides at a concentration of 12.5 μM in PBS in the absence or presence of 1.56 μM MBP. Samples were imaged at 6 h by TEM (A and B) and at 3 h by single-touch AFM (D and E). Aliquots of 1.56 μM MBP alone were imaged by TEM (C) and by AFM (F).
For electron microscopy, a 20 μl aliquot of the sample mixture was deposited onto a Formvar-coated copper mesh grid. The sample was allowed to stand for 60 s, and excess solution was wicked away. The samples were negatively stained with 2% (w/v) uranyl acetate. The excess stain was wicked away, and the sample was allowed to dry. The samples were viewed with an FEI Tecnai 12 BioTwin transmission electron microscope, and digital images were taken with an Advanced Microscopy Techniques camera.
Atomic force microscopy (“AFM”) was carried out using a lifeScan controller (LifeAFM Inc., Port Jefferson, N.Y.) interfaced with a MultiMode microscope (Digital Instruments, Santa Barbara, Calif.) fitted with an E seamier. With this instrument configuration, only a single contact of the AFM probe is made with the sample per pixel. Computer control of the cantilever position and angle during approach allows for detection of the sample height with minimum cantilever deflection, allowing for a minimum compressive force (30-100 piconewtons/nm) applied to the sample. AFM samples were prepared by adsorbing 20 μl of sample mixture to freshly cleaved ruby mica (S & J Trading, Inc., Glen Oaks, N.Y.) for 45 min to 1 h. The samples were rehydrated with ultrapure Milli-Q water (Millipore Corp., Billerica, Mass.) and immediately imaged. Samples were imaged using SuperSharpSilicon probes (SSS-CONT, NANOSENSORS, Neuchatel, Switzerland) that were modified for magnetic retraction by attaching samarium cobalt particles. The effective diameter of the SuperSharpSilicon probes was 4±1 nm at a height of 2 nm. Data analysis and graphics were performed using Interactive Display Language Version 5.0 (Research Systems, Inc., Boulder, Colo.). In the Z-scale bars, numbers in each color square indicate the Z-value at the middle of the range for that color.

[2] = biological target: Aβ40WT (Homo sapiens, UniProt P05067); test: Affinity chromatography of human brain homogenate on Aβ40WT column; format: binding
Method: For some embodiments of the invention, it may be advantageous to work with purified isolates of mutant and wild-type forms of Aβ. The affinity chromatography method used in the development of embodiments of the instant invention to obtain such isolates is exemplary: To prepare affinity resins, biotinylated wild-type Aβ40 peptide (Aβ40WT) and Aβ40DI were each redissolved in 20 mM NaHCO3 buffer (pH 8.5) and applied to ImmunoPure immobilized streptavidin beads (Pierce) following the manufacturer's instructions. Immobilized ligands were cross-linked with 2 mM bis(sulfosuccinimidyl) suberate (Pierce) for 30 min with rocking at room temperature in 20 mM NaHCO3 (pH 8.5). Crosslinking reactions were stopped by the addition of 1 M Tris-HCl (pH 7.4) to a final concentration of 20 mM. Homogenates of normal human brain frontal cortex (which may obtained as biopsies) were prepared in Tris-buffered saline (50 mM Tris-HCl and 200 mM NaCl (pH 7.4)) containing complete protease inhibitor cocktail (Roche). Homogenates were centrifuged at 12,000×g for 30 min, and supernatants were loaded onto Tris-buffered saline-equilibrated affinity columns (0.8×4 cm) under gravity flow. […] Fractions were analyzed by SDS-PAGE on 10-20% Tris/glycine gradient gels. […]

[3] = biological target: Aβ42WT (Homo sapiens, UniProt P05067); test: Circular dichroism spectroscopy of Aβ42WT β-sheet formation; format: biochemical; details: MBP added to incubates, 37° C.
Text: Aβ42 (□), MBP (□), Aβ42 with MBP (□).
The formation of β-sheet fibrils may be evaluated by circular dichroism (“CD”) spectroscopy. The technique is based on circularly polarized light. The secondary structure of proteins tends to “distort” the polarization toward the elliptical. The degree and direction of the distortion over a range of wavelengths produces spectra that are characteristic of the protein under examination and its secondary structure. One such method, suitable for use in embodiments of the present invention, is summarized below:
Preferably, purified protein is placed in detergent-free, low-salt buffer in a cuvette having a lightpath length on the order of 1 mm. The optimal concentration of the protein may be determined by standard techniques well-known in the art, and confirmed by comparing the spectrum over a range of concentrations, using an instrument (e.g., JASCO) and cuvette properly calibrated with a standard such as d-10-camphorsulfonic acid in water. To acquire a CD spectrum, the sample is scanned over a wavelength range of about 180-260 nm (spectral width approx. 1 nm). A suitable scan rate is of the order of 100 nm/min for a response time of about 2 seconds. Preferably, however, slower scan speeds (e.g., 5 nm/min, response time around 20 seconds) are used to reduce noise.

[4] = in the presence of MBP at 3 hours

B1: myelin basic protein (protein)
chain: ASQKRPSQRHGSKYLATASTMDHARHGFLPRHRDTGILDSIGRFFGGDRGAPKRGSGKDSHHPARTAHYGSLPQKSHGRTQDENPVVHFFKNIVTPRTPPPSQGKGRGLSLSRFSWGAEGQRPGFGYGGRASDYKSAHKGFKGVDAQGTLSKIFKLGGRDSRSGSPMARR
notes: myelin basic protein, major form about 18.5 Kd (170 residues); purified protein
Question: What does the source list for B1?
Answer: aggregation of MBP alone (TEM and AFM) ([1]; 1.56 μM MBP alone): does not aggregate significantly; Aβ40DI fibril formation by TEM ([1]; 6 hours, sub-stoichiometric MBP): no evidence of fibril formation; heights of Aβ40DI oligomers and protofibrils by AFM [1, 4]: ≈ 2 nm; lengths of Aβ40DI oligomers and protofibrils by AFM [1, 4]: < 200 nm; capture on Aβ40WT affinity column [2]: not captured; Aβ42WT fibril formation by circular dichroism [3]: prevents fibril formation
